Patent US20190361012A1 (published 2019)

Key:
[1] = target: TIA1 protein (recombinant, purchased from Origene) (human) (UniProt P31483); test: MST self-assembly, labelled TIA1 titrated with non-labeled TIA1, without 2′,3′-cAMP
[2] = target: TIA1 protein (recombinant, purchased from Origene) (human) (UniProt P31483); test: MST self-assembly, labelled TIA1 titrated with non-labeled TIA1, in the presence of 500 µM 2′,3′-cAMP
[3] = target: FBA6 protein expressed and purified from E. coli (Arabidopsis) (UniProt Q9SJQ9); test: microscale thermophoresis (MST), FBA6 purified from E. coli
Sequence of FBA6 protein expressed and purified from E. coli (Arabidopsis) (Q9SJQ9 whole entry): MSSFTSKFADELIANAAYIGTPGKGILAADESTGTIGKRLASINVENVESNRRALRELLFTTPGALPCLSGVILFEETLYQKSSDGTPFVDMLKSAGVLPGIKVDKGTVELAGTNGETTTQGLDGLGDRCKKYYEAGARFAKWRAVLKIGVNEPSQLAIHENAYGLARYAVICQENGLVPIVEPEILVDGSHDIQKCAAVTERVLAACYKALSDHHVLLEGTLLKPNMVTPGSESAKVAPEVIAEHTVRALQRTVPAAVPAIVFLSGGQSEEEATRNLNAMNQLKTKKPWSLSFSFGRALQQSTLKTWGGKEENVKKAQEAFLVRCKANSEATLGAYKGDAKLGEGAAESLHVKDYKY

[4] = target: the molecule itself; test: MST self-assembly, labelled Rbp47b titrated with non-labeled Rbp47b, in the presence of 50 µM 2′,3′-cAMP
Experimental: (§1) MST measurements were performed using a Monolith NT.115 instrument (NanoTemper, München, Germany). Capillaries were loaded into the instrument as sets of 13-16 point ligand titrations. […] Excitation was optimized by varying the LED power to yield emission intensities above 200 AU, corresponding to 10-50 nM labeled protein. Monolith power was set to 60%. Ligands [2′,3′-cAMP (Sigma A9376)] and [3′,5′-cAMP (Sigma A6885)] were dissolved in PBS. 0.5% Tween and premium coated capillaries were used to prevent sticking. […] MO Affinity Analysis software was used to analyze (Kd calculation) and visualize the data. Presented data are from 2-3 technical replicates.

[5] = target: the molecule itself; test: MST self-assembly, labelled Rbp47b titrated with non-labeled Rbp47b, without 2′,3′-cAMP
Experimental: as §1

TIA1 protein (recombinant, purchased from Origene) (from UniProt P31483 1-386)
Kd [1]: 36.3 nM | Kd [2]: 20.6 nM

L-Gly-L-Pro (peptide)
Kd [3]: 200 nM

B1: His6-Rbp47b (other, Arabidopsis)
chain: HHHHHHMQTTNGSDSTLATSGATPPNQQTPPPPQQWQQQQQQQQQWMAAMQYPPAAAMMMMQQQQMLMYPHQYVPYNQGPYQQHHPQLHQYGSYQQHQHQQHKAIDRGSGDDVKTLWVGDLLHWMDETYLHSCFSHTGEVSSVKVIRNKLTSQSEGYGFVEFLSRAAAEEVLQNYSGSVMPNSDQPFRINWASFSTGEKRAVENGPDLSVFVGDLSPDVTDVLLHETFSDRYPSVKSAKVVIDSNTGRSKGYGFVRFGDENERSRALTEMNGAYCSNRQMRVGIATPKRAIANQQQHSSQAVILAGGHGSNGSMGYGSQSDGESTNATIFVGGIDPDVIDEDLRQPFSQFGEVVSVKIPVGKGCGFVQFADRKSAEDAIESLNGTVIGKNTVRLSWGRSPNKQWRGDSGQQWNGGYSRGHGYNNGGGYANHHDSNNYHGEN
modifications: the labelled partner carries RED-NHS (amine reactive) dye; the titrated partner is non-labeled
notes: Cloned as His6-Rbp47b-GFP in E. coli; The fraction that had spontaneously lost GFP (His6-Rbp47b) was used for MST; In the self-assembly assay labelled Rbp47b was titrated with non-labeled Rbp47b; also called Rb47b
Kd [4]: 8.9 nM | Kd [5]: 128 nM
